The results in this text go back to article doi:10.1101/2024.07.23.604836.

The data set has as its target T1, TLR7-Fc (toll-like receptor 7 ectodomain fused to human Fc) (UniProt Q9NYK1 27-839).
T1 sequence: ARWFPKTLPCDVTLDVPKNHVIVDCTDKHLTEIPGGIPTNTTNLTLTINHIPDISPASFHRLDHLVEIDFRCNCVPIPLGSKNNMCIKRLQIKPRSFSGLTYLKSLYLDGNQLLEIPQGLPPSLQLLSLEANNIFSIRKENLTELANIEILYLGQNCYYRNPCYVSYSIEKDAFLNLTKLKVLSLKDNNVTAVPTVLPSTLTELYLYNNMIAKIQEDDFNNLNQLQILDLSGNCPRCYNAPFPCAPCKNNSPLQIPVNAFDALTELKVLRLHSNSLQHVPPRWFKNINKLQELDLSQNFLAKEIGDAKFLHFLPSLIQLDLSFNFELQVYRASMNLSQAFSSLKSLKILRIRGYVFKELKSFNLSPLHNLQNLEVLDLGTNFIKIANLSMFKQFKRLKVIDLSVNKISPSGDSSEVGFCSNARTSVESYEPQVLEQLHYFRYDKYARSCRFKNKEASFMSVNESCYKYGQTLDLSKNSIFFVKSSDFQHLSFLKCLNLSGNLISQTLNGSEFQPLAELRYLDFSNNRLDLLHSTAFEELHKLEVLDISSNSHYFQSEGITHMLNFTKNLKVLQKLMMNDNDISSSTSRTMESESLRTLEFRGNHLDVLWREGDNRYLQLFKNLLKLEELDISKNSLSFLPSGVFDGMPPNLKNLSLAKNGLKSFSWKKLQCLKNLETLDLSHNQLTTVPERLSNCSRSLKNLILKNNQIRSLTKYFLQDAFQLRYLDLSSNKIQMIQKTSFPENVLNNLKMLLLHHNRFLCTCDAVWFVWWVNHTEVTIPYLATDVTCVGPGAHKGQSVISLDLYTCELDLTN
The data set is described as follows: competition.

B1: competitor ssRNA (ssRNA)
RNA: GUCUUCAAAACUAGGUCGUUUUAGA
modifications: 5' phosphate; 3' biotin
Turning to B1, the binding result is “binds”.
